Source: US20220348652A1 (ANTAIMMU BIOMED, published 2022)
Where a chain is given by its changes, count along the chain named.

Target: T1, human CD47 expressed on CHO-CD47 cells (human, UniProt Q08722 19-323)
T1 construct: whole, on cells; also called cellular CD47; full-length CD47
Assay: flow cytometry, IgG on CHO-CD47 cells
Protocol: The anti-CD47 scFvs were respectively expressed in their IgG formats in accordance with the procedure described in Materials and Methods. CHO cells expressing CD47 (CHO-CD47 cells) and wild-type CHO cells (CHO-WT cells) were respectively treated with anti-CD47 IgGs. After washing, the binding of the anti-CD47 IgGs was detected using a polyclonal APC-conjugated anti-human IgG antibody. Relative MFI was measured by flow cytometry. Antibody R23, a reference antibody constructed according to the sequences of ADI29341 disclosed in US20200181259A1, served as a positive control in this study.

B1: CD47-26 IgG (antibody, V domains shown)
VH: EVQLVESGGGLVQPGGSLRLSCAASGFTITNFYIHWVRQAPGKGLEWVAKITPYNGDTHYADSVKGRFTISADTSKNTAYLQMNSLRAEDTAVYYCTRGGYAMDYWGQGTLVTVSS
VL: DIQMTQSPSSLSASVGDRVTITCRASQDVSNYVAWYQQKPGKAPKLLIYGTSRLYPGVPSRFSGSGSGTDFTLTISSLQPEDFATYYCQQHSSYPLTFGQGTKVEIKR
notes: IgG made in CHO cells; constant domains as for m19; also called antibody CD47-26
EC50: 2.05 µg/mL

B2: CD47-30 IgG (antibody, V domains shown)
VH: EVQLVESGGGLVQPGGSLRLSCAASGFTINNWWIHWVRQAPGKGLEWVAWIDPFNGDSDYADSVKGRFTISADTSKNTAYLQMNSLRAEDTAVYYCARGGFALDHWGQGTLVTVSS
VL: B1 VL with N31H, G50S, L96I
notes: IgG made in CHO cells; constant domains as for m19; also called antibody CD47-30
EC50: 2.67 µg/mL
